Measurements taken from patent publication US20100172907A1 (Hoffmann-La Roche, published 2010).
Residue numbers refer to the chain shown, from its start. Groups on a side chain read outwards from the residue. No end group written: not given here. NSMP = not defined here

B1: MS-Roche #7 Fab (Fab, V domains shown)
VH: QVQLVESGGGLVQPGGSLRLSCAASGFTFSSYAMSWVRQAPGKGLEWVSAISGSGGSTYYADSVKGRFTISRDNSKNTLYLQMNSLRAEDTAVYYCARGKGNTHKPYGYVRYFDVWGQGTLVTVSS
VL: DIVLTQSPATLSLSPGERATLSCRASQSVSSSYLAWYQQKPGQAPRLLIYGASSRATGVPARFSGSGSGTDFTLTISSLEPEDFATYYCFQLYSDPFTFGQGTKVEIKR
notes: parental HuCAL Fab; also called MSR-7 Fab; MS-R 7
B2: MS-Roche #7.2.H4 Fab (Fab, V domains shown)
VH: QVQLVESGGGLVQPGGSLRLSCAASGFTFSSYAMSWVRQAPGKGLEWVSAINSKGSRIYYADSVKGRFTISRDNSKNTLYLQMNSLRAEDTAVYYCARGKGNTHKPYGYVRYFDVWGQGTLVTVSS
VL: B1 VL with F90Q, L92I, D95F, F97H
B3: MS-Roche #7.11.H1 Fab (Fab, V domains shown)
VH: B2 VH with A50G, S53A, K54A, S56F, I58T
VL: B1 VL with F90Q, L92V, D95P, F97H
B4: MS-Roche #7.9.H2 Fab (Fab, V domains shown)
VH: B2 VH with S53A, K54D, S56N, I58K
VL: B1 VL with F90L, L92I, S94N, D95M, F97I
notes: assembled
B5: MS-Roche #7.4.H2 Fab (Fab, V domains shown)
VH: B2 VH with S53Y, K54N, S56A
VL: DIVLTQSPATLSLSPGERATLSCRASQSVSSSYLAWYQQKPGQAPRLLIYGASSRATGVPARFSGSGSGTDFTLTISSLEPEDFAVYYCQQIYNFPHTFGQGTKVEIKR
B6: MS-Roche #7.2.H5 Fab (Fab, V domains shown)
VH: B2 VH with S53A, K54T, S56R, R57S, I58K
VL: B1 VL with F90Q, L92I, D95F, F97H
B7: MS-Roche #7.9.H4 Fab (Fab, V domains shown)
VH: B2 VH with S53A, K54V, S56M, R57K, I58K, Y59F
VL: B1 VL with F90L, L92I, S94N, D95M, F97I
notes: assembled
B8: MS-Roche #7.2.H3 Fab (Fab, V domains shown)
VH: B2 VH with S53A, K54N, S56Y, R57K, I58T
VL: B1 VL with F90Q, L92I, D95F, F97H
B9: MS-Roche #7.2.H1 Fab (Fab, V domains shown)
VH: B2 VH with S53A, K54N, S56L, R57K, I58K
VL: B1 VL with F90Q, L92I, D95F, F97H
B10: MS-Roche #7.2.L1 Fab (Fab, V domains shown)
VH: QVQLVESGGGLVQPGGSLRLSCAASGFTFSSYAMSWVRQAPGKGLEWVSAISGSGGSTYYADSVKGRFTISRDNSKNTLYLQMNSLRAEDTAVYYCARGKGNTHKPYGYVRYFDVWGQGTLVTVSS
VL: B1 VL with S28Y, S30D, S31R, S32T, F90Q, L92I, D95F, F97H
B11: MS-Roche #7.2 Fab (Fab, V domains shown)
VH: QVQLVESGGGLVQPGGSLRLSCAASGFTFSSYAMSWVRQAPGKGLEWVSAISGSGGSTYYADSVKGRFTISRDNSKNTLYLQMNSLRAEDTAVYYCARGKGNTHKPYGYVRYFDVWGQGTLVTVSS
VL: B1 VL with F90Q, L92I, D95F, F97H
B12: MS-Roche #7.2.H2 Fab (Fab, V domains shown)
VH: B2 VH with S53G, K54T, S56M, R57K, I58K
VL: B1 VL with F90Q, L92I, D95F, F97H
B13: MS-Roche #7.11 Fab (Fab, V domains shown)
VH: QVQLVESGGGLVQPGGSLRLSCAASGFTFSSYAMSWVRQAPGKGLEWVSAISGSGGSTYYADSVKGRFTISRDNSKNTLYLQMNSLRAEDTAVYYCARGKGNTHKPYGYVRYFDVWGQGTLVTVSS
VL: B1 VL with F90Q, L92V, D95P, F97H
B14: MS-Roche #7.9.H3 Fab (Fab, V domains shown)
VH: B2 VH with S53Y, K54Q, S56N, I58K
VL: B1 VL with F90L, L92I, S94N, D95M, F97I
notes: assembled
B15: MS-Roche #7.11.H2 Fab (Fab, V domains shown)
VH: B2 VH with S53A, K54N, S56Y, R57K, I58K
VL: B1 VL with F90Q, L92V, D95P, F97H
B16: MS-Roche #3.2.H2 Fab (Fab, V domains shown)
VH: QVQLVESGGGLVQPGGSLRLSCAASGFTFSSYAMSWVRQAPGKGLEWVSAISQRGQFTYYADSVKGRFTISRDNSKNTLYLQMNSLRAEDTAVYYCARLTHYARYYRYFDVWGQGTLVTVSS
VL: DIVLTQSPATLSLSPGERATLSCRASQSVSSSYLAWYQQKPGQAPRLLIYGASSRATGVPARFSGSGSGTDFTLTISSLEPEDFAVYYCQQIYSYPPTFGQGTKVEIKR
B17: MS-Roche #3.4.H3 Fab (Fab, V domains shown)
VH: B16 VH with A50V, R54T, Q56R, F57K, T58I
VL: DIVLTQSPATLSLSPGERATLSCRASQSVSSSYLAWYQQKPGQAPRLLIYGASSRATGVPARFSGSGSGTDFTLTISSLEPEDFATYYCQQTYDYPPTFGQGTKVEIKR
B18: MS-Roche #3.3.H3 Fab (Fab, V domains shown)
VH: B16 VH with R54N, Q56F, F57H, T58I
VL: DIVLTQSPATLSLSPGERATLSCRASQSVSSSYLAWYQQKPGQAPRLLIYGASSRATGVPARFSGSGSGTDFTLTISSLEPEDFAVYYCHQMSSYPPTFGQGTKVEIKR
B19: MS-Roche #3.4.H1 Fab (Fab, V domains shown)
VH: B16 VH with Q53E, R54T, G55S, Q56I, F57R, T58K
VL: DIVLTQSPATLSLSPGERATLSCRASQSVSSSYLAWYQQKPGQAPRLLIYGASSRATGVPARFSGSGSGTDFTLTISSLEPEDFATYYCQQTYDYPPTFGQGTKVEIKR
B20: MS-Roche #3.3.H1 Fab (Fab, V domains shown)
VH: B16 VH with A50V, Q53E, R54K, G55S, Q56R, T58I
VL: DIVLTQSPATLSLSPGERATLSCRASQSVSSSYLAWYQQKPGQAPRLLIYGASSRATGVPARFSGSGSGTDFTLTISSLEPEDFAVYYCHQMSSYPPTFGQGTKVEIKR

Target: T1, BSA-conjugated Aβ heptapeptide LVFFAEC (reading uncertain; also: BSA conjugate)
T1 construct: also called Peptide 17-22
T1 peptide: LVFFAEC([NSMP-BSA])
Test: ELISA
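Wherever OD ratio 17-22/BSA is given: ELISA of antibody at 10 or 2 µg/ml binding plate-coated BSA–peptide conjugates, detected with HRP anti-human Ig and TMB colour, mock-treated BSA without peptide as negative control.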
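Wherever OD ratio 19-24/BSA is given: ELISA of antibody at 10 or 2 µg/ml binding plate-coated BSA–peptide conjugates, detected with HRP anti-human Ig and TMB colour, mock-treated BSA without peptide as negative control.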
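Wherever Peptide-ratio 17-22/2-7 is given: ELISA of antibody at 10 or 2 µg/ml binding plate-coated BSA–peptide conjugates, detected with HRP anti-human Ig and TMB colour, mock-treated BSA without peptide as negative control.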
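Wherever Peptide-ratio 19-24/2-7 is given: ELISA of antibody at 10 or 2 µg/ml binding plate-coated BSA–peptide conjugates, detected with HRP anti-human Ig and TMB colour, mock-treated BSA without peptide as negative control.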

In order of rising “OD ratio 17-22/BSA” value:
1. B18  2
2. B19  2
3. B4  3
4. B1  4
5. B20  4
6. B3  8
7. B9  8
8. B17  9
9. B7  10
10. B12  10
11. B15  10
12. B13  11
13. B14  11
14. B2  12
15. B11  12
16. B16  12
17. B6  13
18. B10  14
19. B5  17
20. B8  17

In order of rising “Peptide-ratio 17-22/2-7” value:
1. B18  0.06
2. B19  0.07
3. B4  0.08
4. B1  0.17
5. B20  0.17
6. B9  0.21
7. B3  0.25
8. B15  0.29
9. B13  0.3
10. B14  0.31
11. B7  0.32
12. B11  0.35
13. B17  0.41
14. B6  0.43
15. B16  0.46
16. B5  0.47
17. B2  0.52
18. B8  0.52
19. B10  0.57
20. B12  0.63

Target: T2, BSA-conjugated Aβ heptapeptide FFAEDVC (C-terminal Cys coupled to NSMP-activated BSA)
T2 construct: also called Peptide 19-24
T2 peptide: FFAEDVC
Test: ELISA

In order of falling “OD ratio 19-24/BSA” value:
1. B16  20
2. B8  18
3. B5  16
4. B6  15
5. B15  14
6. B2  12
7. B10  11
8. B17  11
9. B12  10
10. B9  9
11. B11  9
12. B13  9
13. B14  9
14. B3  8
15. B4  8
16. B20  8
17. B7  7
18. B1  4
19. B18  2
20. B19  2

In order of falling “Peptide-ratio 19-24/2-7” value:
1. B16  0.77
2. B12  0.63
3. B8  0.55
4. B2  0.52
5. B6  0.5
6. B17  0.5
7. B5  0.46
8. B10  0.45
9. B15  0.41
10. B20  0.35
11. B14  0.27
12. B11  0.26
13. B3  0.25
14. B9  0.24
15. B13  0.24
16. B4  0.23
17. B7  0.22
18. B1  0.17
19. B19  0.07
20. B18  0.06

Target: T3, BSA-conjugated Aβ heptapeptide AEFRHDC (C-terminal Cys coupled to NSMP-activated BSA)
T3 construct: also called Peptide 2-7
T3 peptide: AEFRHDC
Test: ELISA

In order of rising “OD ratio 2-7/BSA” value:
1. B12  16
2. B17  22
3. B2  23
4. B20  23
5. B1  24
6. B10  24
7. B16  26
8. B19  27
9. B6  30
10. B7  30
11. B3  31
12. B18  31
13. B8  33
14. B11  34
15. B15  34
16. B4  35
17. B14  35
18. B5  36
19. B13  37
20. B9  38

Target: T4, BSA-conjugated Aβ heptapeptide VFFAEDC (C-terminal Cys coupled to NSMP-activated BSA)
T4 construct: also called Peptide 18-23
T4 peptide: VFFAEDC
Test: ELISA

In order of falling “OD ratio 18-23/BSA” value:
1. B16  23
2. B5  20
3. B8  20
4. B14  20
5. B6  18
6. B17  17
7. B10  16
8. B11  16
9. B7  15
10. B13  15
11. B2  13
12. B15  12
13. B20  12
14. B9  11
15. B12  10
16. B3  9
17. B19  8
18. B1  7
19. B4  6
20. B18  5

In order of falling “Peptide-ratio 18-23/2-7” value:
1. B16  0.88
2. B17  0.77
3. B10  0.68
4. B12  0.63
5. B8  0.61
6. B6  0.6
7. B2  0.57
8. B14  0.57
9. B5  0.56
10. B20  0.52
11. B7  0.49
12. B11  0.47
13. B13  0.41
14. B15  0.36
15. B19  0.3
16. B1  0.29
17. B3  0.29
18. B9  0.29
19. B4  0.16
20. B18  0.16

target: T5, human Aβ (1-40) peptide (human); test: SPR, immobilized fibers;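 further: biacore SPR using in vitro grown Aβ1-40 or Aβ1-42 fibrils immobilized on the chip with Fab analytes, KD from koff/kon fits or equilibrium isotherms based on total Fab concentration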
T5 construct: also called Aβ1-40 fibers
Experimental: (§1) Biacore2000 and Biacore3000 instruments were used for these measurements. Aβ1-40 and Aβ1-42 fibers were generated in vitro by incubation of synthetic peptides at a concentration of 200 μg/ml in 10 mM Na-acetate buffer (pH 4.0) for three days at 37° C. […] For binders with slow kinetics KD values were calculated by curve fitting of the time-dependent sensor responses, i.e. from the ratio of koff/kₒₙ. Binders with fast kinetics were analyzed by fitting the concentration-dependent sensor responses at equilibrium (adsorption-isotherms). KD values were calculated from the Biacore sensograms based on the total Fab concentration as determined by a protein assay. […] Briefly, time-dependent protein binding to Aβ1-40 fibers immobilized on the Biacore chip was measured during the association phase under mass-limited conditions at different flow rates of the analyte solution.

In order of falling Kd:
1. B1  1100 nM
2. B8  45.4 nM
3. B11  22 nM
4. B13  22 nM
5. B20  17.1 nM
6. B19  13.5 nM
7. B10  13.3 nM
8. B3  12.7 nM
9. B5  9.9 nM
10. B9  9.3 nM
11. B12  8.2 nM
12. B6  8 nM
13. B17  6.7 nM
14. B2  5.9 nM
15. B16  5.2 nM
16. B4  5 nM
17. B7  4.8 nM
18. B14  4.2 nM
19. B18  1.4 nM
20. B15  0.3 nM

target: T6, Aβ (1-42) peptide (human); test: SPR, immobilized fibers;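 further: biacore SPR using in vitro grown Aβ1-40 or Aβ1-42 fibrils immobilized on the chip with Fab analytes, KD from koff/kon fits or equilibrium isotherms based on total Fab concentration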
T6 construct: also called Aβ1-42 fibers; Aβ4
Experimental: as §1

In order of falling Kd:
1. B1  1710 nM
2. B13  74 nM
3. B11  58 nM
4. B20  19.4 nM
5. B19  14 nM
6. B10  12.7 nM
7. B9  10.2 nM
8. B6  10.1 nM
9. B17  8.4 nM
10. B12  8.2 nM
11. B3  6.7 nM
12. B5  6.2 nM
13. B4  5.7 nM
14. B8  5.3 nM
15. B2  5 nM
16. B7  4.2 nM
17. B18  3.3 nM
18. B14  2.8 nM
19. B16  1.1 nM
20. B15  0.3 nM
